B1: hemextin AB complex (other)
chain 1: LKCKNKLVPFLSKTCPEGKNLCYKMTMLKMPKIPIKRGCTDACPKSSLLVKVVCCNKDKCN
chain 2: LKCKNKVVPFLKCKNKVVPFLCYKMTLKKVPKIPIKRGCTDACPKSSLLVNVMCCKTDKCN
B2: hemextin A (other)
chain: LKCKNKLVPFLSKTCPEGKNLCYKMTMLKMPKIPIKRGCTDACPKSSLLVKVVCCNKDKCN
notes: also called peak A

How the values were obtained:
TF-FVIIa complex = TF-FVIIa complex (human, UniProt P08709 61-466; P13726 33-295); assay: cell-based or functional assay
plasma kallikrein = assay: cell-based or functional assay
hemextin B = target: T1, hemextin B (Hemachatus haemachatus (African …)); assay: ITC in phosphate, MOPS and Tris buffers at pH 7.4
T1 construct: also called peak B
T1 chain: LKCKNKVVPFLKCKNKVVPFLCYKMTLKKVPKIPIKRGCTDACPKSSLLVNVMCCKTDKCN

Sequence of TF-FVIIa complex (P08709 61-466 limits assumed, chain 1 of 2): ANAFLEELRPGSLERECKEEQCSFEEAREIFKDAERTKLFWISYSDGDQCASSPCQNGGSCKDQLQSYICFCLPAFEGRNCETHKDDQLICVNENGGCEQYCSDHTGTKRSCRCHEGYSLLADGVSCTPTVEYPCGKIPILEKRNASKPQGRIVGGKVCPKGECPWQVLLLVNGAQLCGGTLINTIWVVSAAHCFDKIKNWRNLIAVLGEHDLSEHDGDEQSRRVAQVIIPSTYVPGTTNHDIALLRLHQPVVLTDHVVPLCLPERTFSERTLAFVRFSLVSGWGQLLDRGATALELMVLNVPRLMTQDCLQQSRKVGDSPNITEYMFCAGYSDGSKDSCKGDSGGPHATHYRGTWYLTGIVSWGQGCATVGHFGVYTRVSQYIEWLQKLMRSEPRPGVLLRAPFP
Sequence of TF-FVIIa complex (P13726 33-295 limits assumed, chain 2 of 2): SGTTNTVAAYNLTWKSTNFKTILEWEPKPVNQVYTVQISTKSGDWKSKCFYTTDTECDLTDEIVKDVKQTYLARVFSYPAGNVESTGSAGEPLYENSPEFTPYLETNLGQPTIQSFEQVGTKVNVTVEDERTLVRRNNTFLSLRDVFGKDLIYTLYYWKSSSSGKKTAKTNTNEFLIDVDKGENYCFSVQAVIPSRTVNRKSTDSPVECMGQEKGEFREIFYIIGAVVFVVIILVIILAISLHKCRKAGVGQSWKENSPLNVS

| Binder | IC50, inhibition of extrinsic tenase activity (FXa formation) (TF-FVIIa complex) [µM] | IC50, inhibition of plasma kallikrein amidolytic activity (plasma kallikrein) [µM] | ΔHbin (binding enthalpy corrected for protonation) (hemextin B) [kcal/mol] |
| --- | --- | --- | --- |
| B1 | 0.1 | ~5 |  |
| B2 |  |  | -3.64 |

Reference: patent publication US20090180995A1 (NATIONAL UNIVERSITY OF SINGAPORE, published 2009)
